In paper PMC5774586:
Each block holds one molecule with its values, some of them ahead of it.

Columns and labels:
FOXA1-Venus = FOXA1-Venus (UniProt P55317); test: FRET or BRET
ESR1-Cerulean, P03372 = target: T1, ESR1-Cerulean, P03372; test: FRET or BRET; conditions: remark: other sources report otherwise
T1 chain: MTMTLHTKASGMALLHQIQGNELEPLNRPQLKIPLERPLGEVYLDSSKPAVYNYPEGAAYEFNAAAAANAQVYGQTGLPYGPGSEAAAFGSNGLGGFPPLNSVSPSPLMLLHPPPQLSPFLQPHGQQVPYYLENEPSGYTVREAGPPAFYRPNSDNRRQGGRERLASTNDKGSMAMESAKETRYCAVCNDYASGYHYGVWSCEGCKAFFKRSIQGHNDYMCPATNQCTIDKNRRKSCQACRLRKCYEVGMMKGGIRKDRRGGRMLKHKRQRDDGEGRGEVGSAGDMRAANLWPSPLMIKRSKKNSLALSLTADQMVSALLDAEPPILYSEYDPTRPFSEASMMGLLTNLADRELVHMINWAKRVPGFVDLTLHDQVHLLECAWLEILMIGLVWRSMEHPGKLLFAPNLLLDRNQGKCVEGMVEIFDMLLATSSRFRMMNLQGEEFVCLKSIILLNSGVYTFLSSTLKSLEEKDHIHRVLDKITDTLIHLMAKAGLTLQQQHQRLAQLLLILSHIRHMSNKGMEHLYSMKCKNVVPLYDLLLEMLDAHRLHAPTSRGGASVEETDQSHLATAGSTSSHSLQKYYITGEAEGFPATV

FRET efficiency (FOXA1-Venus): 0.055
Molecule: NFIB-Cerulean (from UniProt O00712 1-420) (natural protein)

FRET efficiency (ESR1-Cerulean, P03372): 0.139
B1: FOXA1-Venus, P55317 1-472 (natural protein)
chain: MLGTVKMEGHETSDWNSYYADTQEAYSSVPVSNMNSGLGSMNSMNTYMTMNTMTTSGNMTPASFNMSYANPGLGAGLSPGAVAGMPGGSAGAMNSMTAAGVTAMGTALSPSGMGAMGAQQAASMNGLGPYAAAMNPCMSPMAYAPSNLGRSRAGGGGDAKTFKRSYPHAKPPYSYISLITMAIQQAPSKMLTLSEIYQWIMDLFPYYRQNQQRWQNSIRHSLSFNDCFVKVARSPDKPGKGSYWTLHPDSGNMFENGCYLRRQKRFKCEKQPGAGGGGGSGSGGSGAKGGPESRKDPSGASNPSADSPLHRGVHGKTGQLEGAPAPGPAASPQTLDHSGATATGGASELKTPASSTAPPISSGPGALASVPASHPAHGLAPHESQLHLKGDPHYSFNHPFSINNLMSSSEQQHKLDFKAYEQALQYSPYGSTLPASLPLGSASVTTRSPIEPSALEPAYYQGVYSRPVLNTS
